{
  "source": "paper PMC2789240",
  "about": "“Comparative structural, kinetic and inhibitor studies of Trypanosoma brucei trypanothione reductase with T. cruzi^☆” (Molecular and Biochemical Parasitology, 2010)",
  "proteins": {"B1": {"name": "Trypanosoma brucei brucei trypanothione reductase (enzyme, T. b. brucei, UniProt P39051 1-492, looked up)", "chain": "MSKIFDLVVIGAGSGGLEAGWNAATLYKKRVAVIDVQTHHGPPHYAALGGTCVNVGCVPKKLMVTGAQYMDHLRESAGFGWEFDGSSVKANWKKLIAAKNEAVLDINKSYEGMFNDTEGLDFFLGWGSLESKNVVVVRETADPKSAVKERLQADHILLATGSWPQMPAIPGVEHCISSNEAFYLPEPPRRVLTVGGGFISVEFAGIFNAYKPPGGKVTLCYRNNLILRGFDETIREEVTKQLTANGIEIMTNENPAKVSLNTDGSKHVTFESGKTLDVDVVMMAIGRIPRTNDLQLGNVGVKLTPKGGVQVDEFSRTNVPNIYAIGDITDRLMLTPVAINEGAALVDTVFGNKPRKTDHTRVASAVFSIPPIGTCGLIEEVAAKEFEKVAVYMSSFTPLMHNISGSKYKKFVAKIVTNHSDGTVLGVHLLGDGAPEIIQAVGVCLRLNAKISDFYNTIGVHPTSAEELCSMRTPSYYYLKGEKMETLPESSL", "notes": "Trypanothione reductase, T. b. brucei strain S427 (MITat 1.4); complete open reading frame amplified from start to stop codon; identical at the amino acid level to genome strain 927 (GeneDB Tb10.406.0520) and to T. b. gambiense TryR; calculated subunit mass 53,156 Da; Flavoprotein: each subunit carries 1 FAD (and 1 NADPH in the crystal); In the crystal model the first residue and the last 2 …"}},
  "molecular_target": "the molecule itself",
  "experiment": "SEC; 600 ug TbTryR on Superdex 200 10/300, 25 mM HEPES pH 7.5, 100 mM NaCl; mass from BioRad gel filtration standards; data not shown",
  "data": [
    {"protein": "B1", "values": [
      {"measurement": "stoichiometry N", "value": 2}
    ]}
  ]
}
